Test results taken from PMC9439264.

Molecular target: HA trimer of A/Beijing/262/1995 (H1N1), thrombin- and trypsin-treated, for the immune complex (Influenza A virus A/Beijing/262/1995 (H1N1))
Assay: cryo-EM structure; 12H5 Fab with thrombin- and trypsin-treated BJ/1995 HA trimer

HA trimer of A/Beijing/262/1995 (H1N1), thrombin- and trypsin-treated, for the immune complex
stoichiometry N: 3
